Laboratory results published in PMC6662305, “The basic helix‐loop‐helix transcription factor, OsPIL15, regulates grain size via directly targeting a purine permease gene OsPUP7 in rice”.

Assays:
OsPIL15-His [1] = molecular target: T1, OsPIL15-His (Oryza sativa L. cv. Nipponbare, UniProt Q0JNI9 1-637); assay: EMSA; EMSA: Beyotime kit binding buffer (composition, salt and pH not stated), 30 min at room temperature, 6% native polyacrylamide gel; settings: protein: recombinant; tags: His (pET28a); chain copies: 2; label: 3' biotin; blunt
T1 sequence: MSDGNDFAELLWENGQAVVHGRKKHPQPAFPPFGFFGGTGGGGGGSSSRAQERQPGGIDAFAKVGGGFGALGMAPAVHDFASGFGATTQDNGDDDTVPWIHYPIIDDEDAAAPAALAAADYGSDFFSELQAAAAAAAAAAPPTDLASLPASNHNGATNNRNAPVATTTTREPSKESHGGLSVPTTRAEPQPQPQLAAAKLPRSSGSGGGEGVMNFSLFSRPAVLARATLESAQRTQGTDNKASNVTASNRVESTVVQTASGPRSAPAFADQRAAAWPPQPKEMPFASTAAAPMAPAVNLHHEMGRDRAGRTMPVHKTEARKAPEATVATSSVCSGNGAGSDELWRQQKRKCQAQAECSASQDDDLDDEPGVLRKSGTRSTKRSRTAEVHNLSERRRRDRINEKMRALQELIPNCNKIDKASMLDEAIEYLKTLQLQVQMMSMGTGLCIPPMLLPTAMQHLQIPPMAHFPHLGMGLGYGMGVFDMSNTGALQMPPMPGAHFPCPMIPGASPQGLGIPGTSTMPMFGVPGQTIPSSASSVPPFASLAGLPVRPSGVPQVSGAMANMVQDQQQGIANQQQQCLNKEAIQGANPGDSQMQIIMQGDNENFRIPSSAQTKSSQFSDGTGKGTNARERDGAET

OsPIL15-His [2] = molecular target: T1, OsPIL15-His; assay: EMSA; strong signal; EMSA: Beyotime kit binding buffer (composition, salt and pH not stated), 30 min at room temperature, 6% native polyacrylamide gel; settings: protein: recombinant; tags: His (pET28a); chain copies: 2; label: 3' biotin; blunt

B1: G-box probe (dsDNA)
DNA 1: TCTAATGACACGTGAGCAAGTCC
DNA 2: GGACTTGCTCACGTGTCATTAGA
- binding result (OsPIL15-His [1]): no binding

B2: N2-box probe (dsDNA)
DNA 1: TCTAATGACACGAGAGCAAGTCC
DNA 2: GGACTTGCTCTCGTGTCATTAGA
- binding result (OsPIL15-His [1]): no binding

B3: Mutant probe 1 (dsDNA)
DNA 1: AATACAGCCGCGACTATCTC
DNA 2: GAGATAGTCGCGGCTGTATT
- binding result (OsPIL15-His [1]): no binding

B4: Mutant probe 2 (dsDNA)
DNA 1: AATACAGGCAGCCCTATCTC
DNA 2: GAGATAGGGCTGCCTGTATT
- binding result (OsPIL15-His [1]): no binding

B5: N1-box probe (dsDNA)
DNA 1: TCTAATGACACGCGAGCAAGTCC
DNA 2: GGACTTGCTCGCGTGTCATTAGA
- binding result (OsPIL15-His [2]): binds
